Results published in article doi:10.1101/2023.12.01.569227 (bioRxiv, 2023).

B1: Seq8 (VHH)
VHH: QVQLQESGGGLVQAGGSLRLSCAASGYGFSEYAMGWFRQAPGKEREFVATISWSGRSTYYTDSVKGRFTISRDNAKNTVYLQMNSLKPDDTAVYYCARAGWGVVVSEWDYDYDYWGQGTQVTVSS
B2: Seq12 (VHH)
VHH: QVQLQESGGGLVQAGGSLRLSCAASGRTFSEYAMGWFRQAPGKEREFVATISWSGGSKYYTDSVKGRFTISRDNAKNTVYLQMNSLKPDDTAVYYCAAAGLGTVVSEWDYDYDYWGQGTQVTVSS
B3: Seq11 (VHH)
VHH: QVQLQESGGGLVQAGGSLRLSCAASGRKFSEYAMGWFRQAPGKEREFVATISWSGRLTYYTDSVKGRFTISRDNAKNTVYLQMNSLKPDDTAVYYCAGAGYGVVVSEWDYDYDYWGQGTQVTVSS
B4: Seq5 (VHH)
VHH: QVQLQESGGGLVQAGGSLRLSCAASGRMFSEYAMGWFRQAPGKEREFVATISWSGKGTYYTDSVKGRFTISRDNAKNTVYLQMNSLKPDDTAVYYCARAGFGVYVSEWDYDYDYWGQGTQVTVSS
B5: Seq4 (VHH)
VHH: QVQLQESGGGLVQAGGSLRLSCAASGRSFSEYAMGWFRQAPGKEREFVATISWSGRATYYTDSVKGRFTISRDNAKNTVYLQMNSLKPDDTAVYYCARAGYGVVVSEWDYDYDYWGQGTQVTVSS
B6: Seq6 (VHH)
VHH: QVQLQESGGGLVQAGGSLRLSCAASGRLFSEYAMGWFRQAPGKEREFVATISWSGRSTYYTDSVKGRFTISRDNAKNTVYLQMNSLKPDDTAVYYCAKAGWGVVVSEWDYDYDYWGQGTQVTVSS
B7: Seq2 (VHH)
VHH: QVQLQESGGGLVQAGGSLRLSCAASGRGFSEYAMGWFRQAPGKEREFVATISWSGGGTYYTDSVKGRFTISRDNAKNTVYLQMNSLKPDDTAVYYCARAGFGVWVSEWDYDYDYWGQGTQVTVSS
B8: Seq3 (VHH)
VHH: QVQLQESGGGLVQAGGSLRLSCAASGRMFSETAMGWFRQAPGKEREFVATISWSGRGTYYTDSVKGRFTISRDNAKNTVYLQMNSLKPDDTAVYYCAGAGYGVYVSEWDYDYDYWGQGTQVTVSS
B9: Seq1 (VHH)
VHH: QVQLQESGGGLVQAGGSLRLSCAASGRTFSETAMGWFRQAPGKEREFVATISWSGRGTYYTDSVKGRFTISRDNAKNTVYLQMNSLKPDDTAVYYCAYAGYGVVVSEWDYDYDYWGQGTQVTVSS
B10: Seq7 (VHH)
VHH: QVQLQESGGGLVQAGGSLRLSCAASGLKFSETAMGWFRQAPGKEREFVATISWSGRSTYYTDSVKGRFTISRDNAKNTVYLQMNSLKPDDTAVYYCARAGYGVVVSEWDYDYDYWGQGTQVTVSS

These binders were tested against SARS-CoV-2 RBD (SARS-CoV-2, Wuhan-Hu-1, UniProt P0DTC2, biotinylated with an EZ-Link NHS-PEG4 biotinylation kit) (assay: BLI).
With B1 the “fold improvement in binding affinity over VHH-72” value (“fold improvement” below) was > 2 fold. B2: binds. With B3 the “fold improvement” value was > 2 fold. B4 was tested, and the “fold improvement” value was > 2 fold. For B5, the “fold improvement” value was > 2 fold. For B6, the “fold improvement” value was > 2 fold. With B7 the “fold improvement” value was > 2 fold. With B8 the “fold improvement” value was > 2 fold. With B9 the “fold improvement” value was > 2 fold. B10 was tested, and the “fold improvement” value was > 2 fold.
